US20260243766A1 (published 2026)

Molecular target: R6A/Q72R
Assay: SPR

B1: 10LH (scFv)
scFv: SRNGGDGQSVLTQPPSVSVSPGQTASITCSGDSLGNKYACWYQQKPGQSPVLVIYQDSKRPSGIPERFSGSNSGNTATLTISGTQAMDEADYYCQAWDSSRGYTVVFGTGTKVTVSSQTGGSGGGGSGGGGSGGGGSEVQLLESGGGLVQPGGSLRLSCAASGFTFDSYAMSWVRQAPGKGLEWVSAISGYGGSTYYADSVKGRFTISRDNSKNTLYLQMNSLRAEDTAVYYCAKYTYFLDAFDIWGQGTMVTVSSS
  Kd: 18.8 µM
